Source: patent US20200270588A1, “GLUCOSYL TRANSFERASE POLYPEPTIDES AND METHODS OF USE” (Syngenta Participations AG, priority 2017, published 2020)
Where a chain is given by its changes, count along the chain named. Names and notes keep the numbering of the source.

B1: A432Q: bx9 SEQ ID NO:1 mutant (protein)
chain: MASSRTGAGAGGRVVVFPFPFQGHFNPVMRLARALHARGLAITVFHSGALDPADYPADYRFVPVTVEADPKLLASEDIAAIVTTLNASCDAPFRARLSALLAAEGRDSVRCVFTDVSWNAVLTASSDLGVPALGMMTASAASLRDYMAYRTLIDKGYLPVKEERKEDPVPELPPYLVKDLLRVDTSDLEEFAELLARTVTAARRASGLIFNTFPLIETDTLAEIHKALSVPVFAVAPLNKLVPTATASLHGVVQADRGCLQWLDTQQPGSVLYVSFGSMAAMDPHEFVELAWGLADSKRPFVWVVRPNLIRGFESGALPDGVEDEVRGRGIVVAWAPQEEVLAHPAVGGFLTHNGWNSTVEAISEGVPMVCCPRHGDQFGNMRYVCDVWKVGTELVGEQLERGQVKAAIDRLFGTKEGEEIKERMKEFKIAQAKGIGIGVDVDETASPRTDLTDLVDLIKSF
modifications: Zea mays
B2: A432T: bx9 SEQ ID NO:1 mutant (protein)
chain: B1 chain with Q432T
modifications: Zea mays
B3: V370T: bx9 SEQ ID NO:1 mutant (protein)
chain: B1 chain with V370T, Q432A
modifications: Zea mays
B4: A281T: bx9 SEQ ID NO:1 mutant (protein)
chain: B1 chain with A281T, Q432A
modifications: Zea mays
B5: I363T: bx9 SEQ ID NO:1 mutant (protein)
chain: B1 chain with I363T, Q432A
modifications: Zea mays
B6: A432H: bx9 SEQ ID NO:1 mutant (protein)
chain: B1 chain with Q432H
modifications: Zea mays
B7: I363A: bx9 SEQ ID NO:1 mutant (protein)
chain: B1 chain with I363A, Q432A
modifications: Zea mays
B8: A281S: bx9 SEQ ID NO:1 mutant (protein)
chain: B1 chain with A281S, Q432A
modifications: Zea mays
B9: V370C: bx9 SEQ ID NO:1 mutant (protein)
chain: B1 chain with V370C, Q432A
modifications: Zea mays
B10: E339V: additional mutation in SEQ ID No: 17 (protein)
chain: B1 chain with S117V, M279F, A334K, E339V, Q432A
modifications: Mutated Zea mays Bx9 protein sequence
B11: I363W: bx9 SEQ ID NO:1 mutant (protein)
chain: B1 chain with I363W, Q432A
modifications: Zea mays
B12: A334K: bx9 SEQ ID NO:1 mutant (protein)
chain: B1 chain with A334K, Q432A
modifications: Zea mays
B13: I363C: bx9 SEQ ID NO:1 mutant (protein)
chain: B1 chain with I363C, Q432A
modifications: Zea mays
B14: E339A (protein)
chain: B1 chain with M279F, E339A, H375Y, Q432A
modifications: C-terminal His tag; Zea mays
B15: A281V: bx9 SEQ ID NO:1 mutant (protein)
chain: B1 chain with A281V, Q432A
modifications: Zea mays
B16: I363F: bx9 SEQ ID NO:1 mutant (protein)
chain: B1 chain with I363F, Q432A
modifications: Zea mays
B17: A281L: bx9 SEQ ID NO:1 mutant (protein)
chain: B1 chain with A281L, Q432A
modifications: Zea mays
B18: I363S: bx9 SEQ ID NO:1 mutant (protein)
chain: B1 chain with I363S, Q432A
modifications: Zea mays
B19: A432N: bx9 SEQ ID NO:1 mutant (protein)
chain: B1 chain with Q432N
modifications: Zea mays
B20: F313M: additional mutation in SEQ ID No: 17 (protein)
chain: B1 chain with S117V, M279F, F313M, A334K, Q432A
modifications: Mutated Zea mays Bx9 protein sequence
B21: I363V: bx9 SEQ ID NO:1 mutant (protein)
chain: B1 chain with I363V, Q432A
modifications: Zea mays
B22: A432V: bx9 SEQ ID NO:1 mutant (protein)
chain: B1 chain with Q432V
modifications: Zea mays
B23: A280V: bx9 SEQ ID NO:1 mutant (protein)
chain: B1 chain with A280V, Q432A
modifications: Zea mays

How the values were obtained:
Format in all cases: biochemical, Zea mays
[1] = UDP luminescence plate assay of E. coli extracts, mutants of SEQ ID No: 1, 2 mM metribuzin; details: 2 mM metribuzin
Method: (§1) Optionally plate assays are stopped with brief heating to 95 C before returning to ice and addition of UDP-Glo detection reagent followed by incubation at lab temperature. […] In addition a UDP standard curve is run alongside each set of plate tests.
Assays were carried out on extracts of E. coli BL21 DE3 expressing the various C-terminally his-tagged library variants of SEQ ID NO:1 at the amino acid positions listed in Table 11 as described in Example 2 except, in this case, with 2 mM metribuzin in place of herbicide V.
Thus the ratio of the metribuzin to DMSO signal as well as the increase in signal relative to the w/t bx9 is used to help distinguish those mutations most likely to offer the highest activity to metribuzin. A follow up assay monitored by, for example, LC MS is one method to distinguish these cases more quantitatively.

[2] = UDP luminescence plate assay of E. coli extracts, mutants within SEQ ID No: 17, 2 mM metribuzin; details: for RATIO of the metribuzin signal to the DMSO signal: 2 mM metribuzin vs DMSO control, same mutant; for SIGNAL: metribuzin signal of mutant divided by the signal of the SEQ ID No. 17 control / luminescence signal observed with 2 mM metribuzin / metribuzin signal relative to the SEQ ID No:17 control (first parentheses) / ratio of metribuzin to DMSO signal (second parentheses): 2 mM metribuzin; for SIGNAL: metribuzin signal of mutant divided by the signal of the SEQ ID No. 17 control: relative to SEQ ID No: 17 control; for luminescence signal in the DMSO control / luminescence signal observed with 2 mM metribuzin: additional mutations within SEQ ID No: 17; for luminescence signal in the DMSO control: DMSO in place of metribuzin; for luminescence signal observed with 2 mM metribuzin: control = SEQ ID No: 17; for metribuzin signal relative to the SEQ ID No:17 control (first parentheses) / ratio of metribuzin to DMSO signal (second parentheses): additional mutation in SEQ ID No: 17
[3] = UDP luminescence plate assay of E. coli extracts, saturation mutants of SEQ ID NO: 1, herbicide V; details: improvement factor relative to w/t bx9 = 1.0, rounded to nearest 0.5; extract activity basis; compound V
Method: Competent BL21 (DE3) cells are transformed as in the foregoing examples and, following seed culturing, grown and autoinduced in plates in a 0.5-1 ml volume of autoinduction medium containing 50 ug/ml kanamycin. Plates are incubated at 37° C. and shaken at 900 rpm. Growth is monitored by taking 20 ul aliquots, diluting 10 fold into flat-bottomed 96 well microtiter plates and reading OD600n at t=0, 1, 2, 2½ and 3 hours if necessary. At a (corrected) OD600 nm˜0.2, plates are transferred to 20° C. and shaken overnight at 900 rpm in a Jencons VWR plate incubator. After ˜18-20 h the final OD600 readings are recorded and the plates centrifuged at 4600 rpm (bench top centrifuge) for 10 min at 4° C. The supernatant is discarded and the pellets then washed with 0.25 ml PBS by repeat centrifugation and removal of supernatant before freezing cell pellets at −80° C. To prepare extracts, plates are allowed to thaw for 30 min and then pellets are resuspended in 0.25 ml of a suitable lysis buffer (for example—50 mM Tris HCL buffer at pH 8.0, 5% glycerol containing 50 mM NaCl and lysonase) mixed, incubated at room temperature for a sufficient time for lysis to be near complete and then centrifuged to remove cell debris and 100 ul of supernatant extract removed to a 96 well V-shaped well plate and stored on ice prior to assay.
as §1
Making use of the ELISA assay it is then possible to calculate a specific activity (e.g. in Relative Luminescence Units (RLU)/min/ug bx protein) based upon the amount of each mutant bx9 polypeptide expressed in each well. […] The specific activity of the various test mutant extracts on the same plate are then expressed as a fraction of the specific activity of the w/t bx9 and thus the ‘improvement factor’ versus the w/t expressed as a decimal where, for example, ‘0.5’ means half the specific activity of the wild type and 2.0 means twice the specific activity of the wild type. However, as will be readily apparent to the skilled man, particularly in cases where the UDP assay signal was low (with poor signal to noise versus the background) and/or the ELISA measurement of bx protein also low such a method is prone to generate spurious high specific activity numbers and uncertain numbers.

Molecule	SIGNAL: metribuzin signal of mutant divided by the signal of the SEQ ID No. 17 control [2]	luminescence signal in the DMSO control [2]	luminescence signal observed with 2 mM metribuzin [2]	Preferred amino acid substitutions and (IF) based on RLU/min/ul [3]	also measured
B1	4.09	6.22E+06	7.46E+06	–	factor of increased signal relative to the bx9 w/t control signal (first parentheses) [1]: 6; ratio of activity with metribuzin relative to activity with DMSO (second parentheses) [1]: 1.35; RATIO of the metribuzin signal to the DMSO signal [2]: 1.20
B2	3.57	5.56E+06	6.51E+06	–	factor of increased signal relative to the bx9 w/t control signal (first parentheses) [1]: 3.5; ratio of activity with metribuzin relative to activity with DMSO (second parentheses) [1]: 1.35; RATIO of the metribuzin signal to the DMSO signal [2]: 1.17
B3	–	–	–	T,C,L,M(1.0)	–
B4	–	–	–	S,T,V(1.0)	–
B5	–	–	–	S,T,F,W(1.5)	–
B6	3.44	6.08E+06	6.28E+06	–	–
B7	–	–	–	–	Most Preferred amino acid substitutions and (IF) based on RLU/min/ul [3]: A,V(2.0)
B8	–	–	–	S,T,V(1.0)	–
B9	–	–	–	T,C,L,M(1.0)	–
B10	2.64	3.18E+06	4.81E+06	–	metribuzin signal relative to the SEQ ID No:17 control (first parentheses) [2]: 2.6; ratio of metribuzin to DMSO signal (second parentheses) [2]: 1.51
B11	–	–	–	S,T,F,W(1.5)	–
B12	–	–	–	–	Most Preferred amino acid substitutions and (IF) based on RLU/min/ul [3]: K,R(2.0)
B13	–	–	–	C(1.0)	–
B14	2.01	2.39E+06	3.66E+06	–	RATIO of the metribuzin signal to the DMSO signal [2]: 1.53
B15	–	–	–	S,T,V(1.0)	–
B16	–	–	–	S,T,F,W(1.5)	–
B17	–	–	–	L(1.5)	–
B18	–	–	–	S,T,F,W(1.5)	–
B19	4.21	6.13E+06	7.67E+06	–	–
B20	1.91	2.69E+06	3.48E+06	–	RATIO of the metribuzin signal to the DMSO signal [2]: 1.29; metribuzin signal relative to the SEQ ID No:17 control (first parentheses) [2]: 1.9; ratio of metribuzin to DMSO signal (second parentheses) [2]: 1.30
B21	–	–	–	–	Most Preferred amino acid substitutions and (IF) based on RLU/min/ul [3]: A,V(2.0)
B22	3.88	5.69E+06	7.07E+06	–	–
B23	–	–	–	V(1.0)	–
